The target in series [1] is T1, Tt-TolB-C (Thermoanaerobacter tengcongensis MB4T, UniProt Q8RCT8 62-645).
T1 sequence: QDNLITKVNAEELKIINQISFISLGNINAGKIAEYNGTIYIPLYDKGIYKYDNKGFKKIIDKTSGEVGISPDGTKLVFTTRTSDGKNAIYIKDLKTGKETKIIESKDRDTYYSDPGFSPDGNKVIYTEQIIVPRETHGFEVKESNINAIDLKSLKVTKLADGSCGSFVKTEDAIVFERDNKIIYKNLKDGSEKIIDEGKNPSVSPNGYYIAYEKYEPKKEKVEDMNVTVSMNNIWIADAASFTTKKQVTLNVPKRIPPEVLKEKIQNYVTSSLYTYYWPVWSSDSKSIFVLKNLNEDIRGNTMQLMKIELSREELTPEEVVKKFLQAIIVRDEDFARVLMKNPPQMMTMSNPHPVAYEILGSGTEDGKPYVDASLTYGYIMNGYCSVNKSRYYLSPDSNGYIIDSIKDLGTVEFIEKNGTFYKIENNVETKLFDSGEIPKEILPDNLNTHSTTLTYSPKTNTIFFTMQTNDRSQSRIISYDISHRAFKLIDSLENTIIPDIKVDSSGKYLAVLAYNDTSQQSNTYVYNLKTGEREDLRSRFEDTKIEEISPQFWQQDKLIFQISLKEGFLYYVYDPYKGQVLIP
Briefly: EMSA; 5 uM, alone; 50 mM Tris-HCl pH 8.0, 10 mM MgAc2, 30 mM NaCl, 1 mM DTT, 5% glycerol, 30 ug/ml BSA, 0.5 mM EDTA, 1 ug poly(dI-dC), 20 fmol probe in 20 ul, 25 C, 20 min. The settings on record: protein: recombinant; tags: His (pET28a); label: 5'-32P top strand; fork: top 3' overhang 10 nt.

The target of series [2] is T2, Tt-TolB (Thermoanaerobacter tengcongensis MB4T, UniProt Q8RCT8 1-645).
T2 sequence: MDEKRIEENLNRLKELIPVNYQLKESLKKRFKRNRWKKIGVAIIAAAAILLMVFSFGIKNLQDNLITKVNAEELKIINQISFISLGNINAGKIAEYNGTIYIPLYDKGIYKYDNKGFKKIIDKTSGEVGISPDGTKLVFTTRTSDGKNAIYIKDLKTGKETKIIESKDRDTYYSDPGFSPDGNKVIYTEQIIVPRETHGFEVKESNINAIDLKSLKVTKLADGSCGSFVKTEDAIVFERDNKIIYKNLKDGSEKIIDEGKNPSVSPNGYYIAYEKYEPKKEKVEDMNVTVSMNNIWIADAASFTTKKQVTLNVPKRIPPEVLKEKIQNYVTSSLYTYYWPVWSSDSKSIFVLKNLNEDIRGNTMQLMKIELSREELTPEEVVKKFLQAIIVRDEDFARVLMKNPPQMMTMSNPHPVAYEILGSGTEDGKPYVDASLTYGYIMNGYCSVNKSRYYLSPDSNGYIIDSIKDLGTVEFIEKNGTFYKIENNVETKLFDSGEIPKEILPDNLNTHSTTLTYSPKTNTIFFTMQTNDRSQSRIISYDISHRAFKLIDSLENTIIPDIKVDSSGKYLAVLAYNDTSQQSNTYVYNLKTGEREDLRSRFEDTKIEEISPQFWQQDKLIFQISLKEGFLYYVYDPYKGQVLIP
The description is as above. The settings on record: protein: recombinant; tags: His (pET28a); label: 5'-32P top strand; fork: top 3' overhang 10 nt.

In series [3] the target is T3, Tt-RpoE1 (Thermoanaerobacter tengcongensis MB4T, UniProt Q8RCT7 1-162).
T3 sequence: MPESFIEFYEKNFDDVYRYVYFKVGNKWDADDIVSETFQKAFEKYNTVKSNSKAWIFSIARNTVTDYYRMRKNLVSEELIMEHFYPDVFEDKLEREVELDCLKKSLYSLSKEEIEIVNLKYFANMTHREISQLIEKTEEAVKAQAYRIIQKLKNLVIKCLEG
Briefly: EMSA; 5 uM protein; 50 mM Tris-HCl pH 8.0, 10 mM MgAc2, 30 mM NaCl, 1 mM DTT, 5% glycerol, 30 ug/ml BSA, 0.5 mM EDTA, 1 ug poly(dI-dC), 20 fmol probe in 20 ul, 25 C, 20 min. The settings on record: protein: recombinant; tags: His (pET28a); label: 5'-32P top strand; fork: top 3' overhang 10 nt. (In EMSA bound probe runs differently from free probe, usually more slowly.)

The target in series [4] is T4, Tt-RpoE1;Tt-TolB (Thermoanaerobacter tengcongensis …, UniProt Q8RCT7;Q8RCT8 1-162;1-645, |).
T4 sequence 1: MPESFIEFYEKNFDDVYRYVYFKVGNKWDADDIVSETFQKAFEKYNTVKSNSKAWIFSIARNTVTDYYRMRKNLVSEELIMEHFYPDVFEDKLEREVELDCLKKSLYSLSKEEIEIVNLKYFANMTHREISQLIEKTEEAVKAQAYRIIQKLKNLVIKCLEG
T4 sequence 2: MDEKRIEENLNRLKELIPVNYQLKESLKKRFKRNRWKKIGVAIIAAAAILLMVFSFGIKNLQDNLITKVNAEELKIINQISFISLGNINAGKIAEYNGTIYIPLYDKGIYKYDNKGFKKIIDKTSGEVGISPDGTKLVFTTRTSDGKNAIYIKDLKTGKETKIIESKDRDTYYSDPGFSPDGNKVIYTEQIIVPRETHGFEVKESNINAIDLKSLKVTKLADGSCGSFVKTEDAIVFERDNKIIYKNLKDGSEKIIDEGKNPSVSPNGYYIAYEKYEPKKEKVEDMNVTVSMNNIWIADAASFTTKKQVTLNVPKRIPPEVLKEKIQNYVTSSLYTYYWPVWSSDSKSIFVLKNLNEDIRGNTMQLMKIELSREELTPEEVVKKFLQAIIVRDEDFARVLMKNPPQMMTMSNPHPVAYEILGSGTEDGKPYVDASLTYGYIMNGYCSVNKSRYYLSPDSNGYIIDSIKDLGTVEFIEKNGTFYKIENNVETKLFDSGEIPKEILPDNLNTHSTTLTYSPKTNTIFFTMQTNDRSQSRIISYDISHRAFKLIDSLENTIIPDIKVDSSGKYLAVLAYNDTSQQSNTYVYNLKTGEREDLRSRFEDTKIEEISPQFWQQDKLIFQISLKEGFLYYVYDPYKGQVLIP
Briefly: EMSA; 5 uM each; supershifted complex; 50 mM Tris-HCl pH 8.0, 10 mM MgAc2, 30 mM NaCl, 1 mM DTT, 5% glycerol, 30 ug/ml BSA, 0.5 mM EDTA, 1 ug poly(dI-dC), 20 fmol probe in 20 ul, 25 C, 20 min. The settings on record: protein: recombinant;recombinant; tags: His (pET28a);His (pET28a); label: 5'-32P top strand; fork: top 3' overhang 10 nt.

We go through one molecule from paper PMC3397946, “Identification and Characterization of the Cognate Anti-Sigma Factor and Specific Promoter Elements of a T. tengcongensis ECF Sigma Factor”.

B1: T+1/B-10 (dsDNA)
DNA 1: GGTATTGTTACCTTTTGTGTAGATTTTCGTCTATAAAGGTG
DNA 2: GACGAAAATCTACACAAAAGGTAACAATACC
Regarding B1, the binding result is “no binding” in series [1], “no binding” in series [2], “binds” in series [3] and “binds” in series [4].
